Changes are numbered by the printed parent chain.
Tests used:
[1] = target: T1, RBM45 RRM1-2 F29A/F70A (RRM2 analog) (Homo sapiens, UniProt Q8IUH3 23-202, F29A;F70A); test: fluorescence polarization
T1 sequence: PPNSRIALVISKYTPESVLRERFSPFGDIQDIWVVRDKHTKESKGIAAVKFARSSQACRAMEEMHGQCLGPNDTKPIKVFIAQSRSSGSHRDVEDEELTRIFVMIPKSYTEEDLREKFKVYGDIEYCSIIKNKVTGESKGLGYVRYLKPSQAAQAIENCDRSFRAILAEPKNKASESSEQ

[2] = target: T2, RBM45 RRM1-2 WT (Homo sapiens, UniProt Q8IUH3 23-202); test: fluorescence polarization
T2 sequence: T1 sequence with A7F, A48F

[3] = target: T3, RBM45 RRM1-2 F124A/Y165A (RRM1 analog) (Homo sapiens, UniProt Q8IUH3 23-202, F124A;Y165A); test: fluorescence polarization
T3 sequence: T1 sequence with A7F, A48F, F102A, Y143A

[4] = target: T2, RBM45 RRM1-2 WT; test: crystal structure
[5] = target: T2, RBM45 RRM1-2 WT; test: gel filtration, SEC-MALS
[6] = target: T2, RBM45 RRM1-2 WT; test: gel filtration, SEC-MALS; remark: listed apart in the source
[7] = target: T2, RBM45 RRM1-2 WT; test: gel filtration, SEC-MALS; remark: listed apart in the source
[8] = target: T2, RBM45 RRM1-2 WT; test: gel filtration
[9] = target: T2, RBM45 RRM1-2 WT; test: gel filtration, SEC-MALS; remark: listed apart in the source
[10] = target: T2, RBM45 RRM1-2 WT; test: gel filtration, SEC-MALS; remark: listed apart in the source
[11] = target: T2, RBM45 RRM1-2 WT; test: gel filtration, SEC-MALS; remark: listed apart in the source
[12] = target: T2, RBM45 RRM1-2 WT; test: gel filtration, SEC-MALS; remark: listed apart in the source
[13] = target: T1, RBM45 RRM1-2 F29A/F70A (RRM2 analog); test: fluorescence polarization; remark: listed apart in the source
[14] = target: T2, RBM45 RRM1-2 WT; test: fluorescence polarization; remark: listed apart in the source
[15] = target: T3, RBM45 RRM1-2 F124A/Y165A (RRM1 analog); test: fluorescence polarization; remark: listed apart in the source
[16] = target: T2, RBM45 RRM1-2 WT; test: gel filtration, SEC-MALS; remark: listed apart in the source

With GGACGG (ssDNA) [GGACGG ssDNA] the Kd [1] was 2.31 ± 0.19 µM, the Kd [2] was 0.805 ± 0.108 µM and the Kd [3] was 1.21 ± 0.09 µM.

CGACGGGACGC (ssDNA) [11-nt ssDNA]: binds [4].

CGACGGGGACGC (ssRNA) [12-mer 2-GAC RNA]: binds [5].

CGACGGUUUUUUGGACGC (ssRNA) [18-mer 2-GAC RNA]: binds [6].

CGACGGUUUUUUUUUUGGACGC (ssRNA) [22-mer 2-GAC RNA]: binds [7].

CGACGACGC (ssRNA) [9-mer 2-GAC RNA]: binds [8].

CGACGGACGC (ssRNA) [10-mer 2-GAC RNA]: binds [8].

Work on UUUUUU (ssRNA) [polyU 6-mer RNA] yielded a Kd [2] of 57.2 ± 10.2 µM.

CGACGGUUGGACGC (ssRNA) [14-mer 2-GAC RNA]: binds [9].

CGACGGUUUUUUUUUUUUUUGGACGC (ssRNA) [26-mer 2-GAC RNA]: binds [10].

CGACGGUUUUUU (ssRNA) [12-mer GAC-polyU RNA]: binds [11].

CGACGGGACGC (ssRNA) [11-mer 2-GAC RNA]: binds [12].

GGACGG (ssRNA, m6A at position 3) [GG(m6A)CGG RNA]: binds [13]; binds [14]; binds [15].

CGACGGUUUUUUUUGGACGC (ssRNA) [20-mer 2-GAC RNA]: binds [16].

CGACGGUUUUGGACGC (ssRNA) [16-mer 2-GAC RNA]: binds [9].
